Values belong to the molecule of their own block, whether it stands above or below them.
What was measured:
[1] = target: H3(1–19)K4me3-b (Paramecium tetraurelia); assay: ELISA; C-terminally biotinylated peptides (4 μM) on streptavidin-coated plates; purified MBP or MBP-CRD fusions (10 to ~100 nM) in buffer C (25 mM Tris pH 7.4, 150 mM NaCl, 0.1% BSA, 0.05% Tween 20), 4 °C overnight; anti-MBP-HRP, absorbance at 450 nm
[2] = target: Pgm(692–768)* (Paramecium tetraurelia); assay: NMR titration; 100 μM 15N-Pgm(692–768)* titrated with 50 to 1000 μM H3(1–19), 1H-15N HSQC at 800 MHz, 5 mM HEPES pH 6.8, 25 mM NaCl, 20 °C; apparent KD from the chemical shift perturbations of E739, assuming 1:1 binding; 1H-1H TOCSY on the final titration point
GST-Pgm(692-768) CRD [3] = target: T1, GST-Pgm(692-768) CRD (Paramecium tetraurelia, UniProt A0DFJ7 692-768); assay: EMSA; DRaCALA: 25 mM HEPES pH 7.5, 0.1 mg/ml BSA, 0.5 mM DTT, 100 mM NaCl, 25 nM DNA, no competitor, temperature not stated; EMSA: as in earlier paper, 5% acrylamide; conditions: protein: recombinant; tags: N-terminal GST; label: 32P
T1 sequence: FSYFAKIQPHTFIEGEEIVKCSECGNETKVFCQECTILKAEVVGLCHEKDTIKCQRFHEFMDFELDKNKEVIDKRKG

GST-Pgm(692-768) CRD [4] = target: T1, GST-Pgm(692-768) CRD; assay: DRaCALA; no competitor DNA; DRaCALA: 25 mM HEPES pH 7.5, 0.1 mg/ml BSA, 0.5 mM DTT, 100 mM NaCl, 25 nM DNA, no competitor, temperature not stated; EMSA: as in earlier paper, 5% acrylamide; conditions: protein: recombinant; tags: N-terminal GST; label: 32P at 5' end of top strand
MBP-Pgm = target: T2, MBP-Pgm (Paramecium tetraurelia, UniProt A0DFJ7 1-1065); assay: DRaCALA; 400 nM protein; DRaCALA: 25 mM HEPES pH 7.5, 0.1 mg/ml BSA, 0.5 mM DTT, 100 mM NaCl, 25 nM DNA, no competitor, temperature not stated; EMSA: as in earlier paper, 5% acrylamide; conditions: protein: recombinant; tags: N-terminal MBP; label: 32P at 5' end of top strand
T2 sequence: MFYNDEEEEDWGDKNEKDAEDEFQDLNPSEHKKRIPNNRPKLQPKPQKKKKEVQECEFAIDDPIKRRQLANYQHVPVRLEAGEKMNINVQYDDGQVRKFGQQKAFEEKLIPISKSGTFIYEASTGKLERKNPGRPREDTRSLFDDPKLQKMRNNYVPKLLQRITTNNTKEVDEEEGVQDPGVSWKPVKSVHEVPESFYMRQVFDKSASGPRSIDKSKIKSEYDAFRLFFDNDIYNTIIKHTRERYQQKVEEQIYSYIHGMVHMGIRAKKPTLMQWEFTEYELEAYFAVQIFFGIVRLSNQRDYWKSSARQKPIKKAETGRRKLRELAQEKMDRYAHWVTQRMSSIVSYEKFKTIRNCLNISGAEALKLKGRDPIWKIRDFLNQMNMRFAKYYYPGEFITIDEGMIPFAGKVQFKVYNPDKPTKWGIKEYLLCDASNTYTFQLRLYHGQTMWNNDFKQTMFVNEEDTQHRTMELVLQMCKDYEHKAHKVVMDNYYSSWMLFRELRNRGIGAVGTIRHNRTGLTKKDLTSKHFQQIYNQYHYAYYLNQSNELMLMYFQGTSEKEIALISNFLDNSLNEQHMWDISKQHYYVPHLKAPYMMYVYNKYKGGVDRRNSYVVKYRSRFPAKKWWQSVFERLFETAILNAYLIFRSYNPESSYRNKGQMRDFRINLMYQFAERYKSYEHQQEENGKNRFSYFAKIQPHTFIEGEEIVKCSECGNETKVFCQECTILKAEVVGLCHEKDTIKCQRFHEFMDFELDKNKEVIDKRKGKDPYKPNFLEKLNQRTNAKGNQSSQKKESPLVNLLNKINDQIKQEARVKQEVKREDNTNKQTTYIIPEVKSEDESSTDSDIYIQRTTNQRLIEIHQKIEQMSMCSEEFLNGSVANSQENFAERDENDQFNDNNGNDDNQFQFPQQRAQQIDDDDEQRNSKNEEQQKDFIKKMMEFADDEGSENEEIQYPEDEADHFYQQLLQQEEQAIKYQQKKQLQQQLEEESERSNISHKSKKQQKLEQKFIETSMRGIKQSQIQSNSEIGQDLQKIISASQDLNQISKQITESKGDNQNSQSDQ

Pgm(692-768)* CRD = target: T3, Pgm(692-768)* CRD (Paramecium tetraurelia, UniProt A0DFJ7 692-768); assay: NMR (1H-1H NOESY); equimolar DNA; 2 Zn2+ in protein; DRaCALA: 25 mM HEPES pH 7.5, 0.1 mg/ml BSA, 0.5 mM DTT, 100 mM NaCl, 25 nM DNA, no competitor, temperature not stated; EMSA: as in earlier paper, 5% acrylamide; conditions: protein: recombinant; tags: GST cleaved by PreScission; seven linker residues left at N-terminus; blunt
T3 sequence: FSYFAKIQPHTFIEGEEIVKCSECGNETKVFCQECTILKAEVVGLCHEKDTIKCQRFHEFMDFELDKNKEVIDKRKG

reduction of the ELISA interaction signal relative to unmodified H3(1–19) [1]: 30%
Molecule: MBP-Pgm(692–768) (domain or fragment)

Kd [2]: 289 µM
Molecule: H3(1–19) (peptide)

B1: IES 51A4404 left end 70-bp substrate (dsDNA)
DNA 1: CTAGCTTACAACGCAGCTTGCACATCTCTAGTTGATGGTATTGTGGTGTTATTTTAAAAAGTAATATATT
DNA 2: CGATAATATATTACTTTTTAAAATAACACCACAATACCATCAACTAGAGATGTGCAAGCTGCGTTGTAAG
binding result (GST-Pgm(692-768) CRD [3]): no binding

B2: IES 51A1835 80-bp substrate (dsDNA)
DNA 1: ACTACTACATAATGCTAAACTCATTTATAGATGGATTGTTTTCCAAGTATCTATATCATCATGTGTTGCTAATAACCCTG
DNA 2: ATCGCAGGGTTATTAGCAACACATGATGATATAGATACTTGGAAAACAATCCATCTATAAATGAGTTTAGCATTATGTAGT
binding result (GST-Pgm(692-768) CRD [4]): no binding | binding result (MBP-Pgm): binds

B3: i1835 (NMR) (dsDNA)
DNA 1: CTACTACATAATGCTAAACTCATTTATAGATGGATTGTTTTCCAAGTATCTATATC
DNA 2: GATATAGATACTTGGAAAACAATCCATCTATAAATGAGTTTAGCATTATGTAGTAG
binding result (Pgm(692-768)* CRD): no binding

B4: i4404 (NMR) (dsDNA)
DNA 1: GCTTGCACATCTCTAGTTGATGG
DNA 2: CCATCAACTAGAGATGTGCAAGC
binding result (Pgm(692-768)* CRD): no binding

Source: publication PMC8086355, “The unusual structure of the PiggyMac cysteine-rich domain reveals zinc finger diversity in PiggyBac-related transposases”
